± gives the standard deviation.
Experiment: protein stability index of a GFP-peptide fusion (GPS, HEK-293T) (PSI 1-6); higher = more stable
Settings: c terminus: a fixed tail appended
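Further: 24-mer peptide tiles fused after GFP, lentivirally expressed, FACS-sorted into six equal bins by GFP/DsRed ratio, decoded by Illumina sequencing, PSI is the read-weighted mean bin number.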

Row | Sequence | protein stability index (treatment: DMSO) | protein stability index (treatment: MLN4924 1 uM, 8 h)
1 | EKIAAEIAQAEEQARKRQEEREKE [SMARCE1] | 5.44 ± 0.17 | 5.74 ± 0.25
2 | IANPNSLNHVKSMWYPEIKHFCPR [RHOBTB1] | 2.22 ± 0.13 | 2.4 ± 0.26
3 | LEEMILPLMVASAQSGERECHIVV [BTBD10] | 2.35 ± 0.79 | 2.48 ± 0.48
4 | LPDLCLCRVFWWLGDRDRSRAALV [FBXO39] | 2.5 ± 0.51 | 2.76 ± 0.7
5 | EEERAQDRIATTDDTTAMASASSS [MAGEA10] | 5.66 ± 0.17 | 5.42 ± 0.1
6 | RSALWCLGLNAAFWFFALTSLRLV [RETREG3] | 2.91 ± 0.53 | 3.03 ± 0.72
7 | FAAPSPATTASPAKVDSSGVIDLF [SNAP91] | 2.93 ± 0.38 | 3.25 ± 0.52
8 | IMLLDKNVPNPRIKLIDFGIAHKI [DAPK3] | 2.89 ± 0.73 | 2.52 ± 0.46
9 | SSFSLLLDLLSELYQKQPKIGYHL [INTS3] | 3.05 ± 0.2 | 2.86 ± 0.62
10 | RLEDKVKTLKAENAGLSSTAGLLR [JUNB] | 3.7 ± 0.22 | 3.97 ± 0.3
11 | NFPQCVLEISDQEVLEWYTAKDFI [EFHC1] | 2.51 ± 0.33 | 2.6 ± 0.45
12 | GDLSGGQVLKKIAQKALDLPSSGE [HMOX1] | 4.77 ± 0.37 | 4.8 ± 0.13
13 | MEHLIYGEPRKLLTQDWVQENYLE [MAGEA10] | 3.41 ± 0.35 | 3.47 ± 0.3
14 | FATQTEELNKQVVSSSEQLQSYQA [KRT33B] | 4.75 ± 0.24 | 4.64 ± 0.17
15 | PAHKNLNKQAYDLAKALLKRTAQA [PDS5B] | 2.22 ± 0.16 | 2.51 ± 0.18
16 | TDVRGLEEFLSAMQSARGPTPSSP [PLEKHN1] | 4.12 ± 0.16 | 4.14 ± 0.38
17 | SILFGFWTSFICDTYIVLAWISKI [SMIM2] | 3.15 ± 0.34 | 3.31 ± 0.25
18 | WKVLTWLRYTLWIPLYPLGCLAEA [HACD3] | 2.78 ± 0.74 | 2.55 ± 0.54
19 | LYPAVSAVWGQCQVRIRYLGERRA [SPSB2] | 2.56 ± 0.19 | 2.62 ± 0.38
20 | LRDDVLCARMLYNYGADTNTRNYE [ASB7] | 3.1 ± 0.21 | 2.86 ± 0.14
21 | KFADNKWSVTGKAEPAMPGRLYVH [TBX5] | 2.53 ± 0.094 | 2.61 ± 0.27
22 | VKVPGIVRLRTLLCKVLGVLFSVA [CLCN6] | 2.21 ± 0.32 | 2.19 ± 0.29
23 | SHHSKHKAPSKLGLIISGPILQEG [DLC1] | 3.08 ± 0.2 | 3.28 ± 0.13

Row | Sequence | protein stability index (treatment: DMSO) | protein stability index (treatment: MLN4924 1 uM, 8 h)
24 | YSLGGVRSLNVASGSGKSGGYGFG [KRT71] | 2.72 ± 0.34 | 3.29 ± 0.49
25 | SIHYAAAYGHRQCLELVSCFVLFS [ANKRD44] | 2.25 ± 0.44 | 2.2 ± 0.52
26 | FQVNKLMKKIKKLENDTISKQLTL [CCDC6] | 2.26 ± 0.12 | 2.38 ± 0.33
27 | VGRTEPELLVAHAYTRYLGDLSGG [HMOX1] | 2.68 ± 0.16 | 2.48 ± 0.08
28 | RIIYQNKCMRNGPNALIASLALGD [EDNRA] | 2.48 ± 0.18 | 2.26 ± 0.21
29 | LLLVAKMSVGHLRLLSHDQVAMPY [JAGN1] | 3.06 ± 0.46 | 2.81 ± 0.21
30 | VDSEQLRRDCDALMAGCIQEARER [CDKN1A] | 4.82 ± 0.15 | 4.7 ± 0.28
31 | GLWSRISHLVLPVQPVSSIEEQGC [TOR1AIP2] | 2.44 ± 0.26 | 2.64 ± 0.38
32 | PRLVSETAERKQEQKTGTEAEAAD [MFSD9] | 5.77 ± 0.12 | 5.61 ± 0.25
33 | GPFGGFFASGFKRAFKIKDFANTI [CDS1] | 2.38 ± 0.31 | 2.44 ± 1
34 | DLKDDGNMMKVLRGHQNWVYSCAF [WSB1] | 2.3 ± 0.29 | 1.87 ± 0.22
35 | LSLPARNQAGYFMLPTVITDIKDE [ALDH8A1] | 3.81 ± 0.39 | 3.88 ± 0.27
36 | KDARQWFAELSVDMEKILEIIRVI [CCNC] | 2.24 ± 0.38 | 2.15 ± 0.35
37 | PGRDRVGREDEDGWETRGDRKARK [HES6] | 5.49 ± 0.26 | 5.48 ± 0.17
38 | RIFRLPNNWYYISPRLTFQCLEDL [SLA] | 2.53 ± 0.28 | 2.38 ± 0.39
39 | KAAVSHWQQQSYLDSGIHSGATTT [CTNNB1] | 3.69 ± 0.2 | 3.78 ± 0.17
40 | RLVFLAAFVVYLETETLVTREAVT [TSN] | 3.6 ± 0.24 | 2.82 ± 0.34
41 | RYADLEAVNRARRPLARPIKRGDI [RHOBTB1] | 3.6 ± 0.4 | 3.83 ± 0.12
42 | RPRALPCQRSRYRDSLTQPDEEPM [RSPH3] | 4.62 ± 0.36 | 5.01 ± 0.17
43 | NQNRAYVTLAAHFLGLGAPNCLSM [ZBED1] | 3.07 ± 0.95 | 3.08 ± 0.59
44 | LMVHGNERFIQYLASRNTLFNLSN [SNAP91] | 2.67 ± 0.54 | 2.3 ± 0.7
45 | LWKRMDKLEAEKRILQEKLDQPVS [CCDC6] | 3.81 ± 0.2 | 3.94 ± 0.35
